Data on five sequences can be found in patent publication US9289478B2, “Formulations of tumour-associated peptides binding to human leukocyte antigen (HLA) class I or class II molecules for vaccine” (IMMATICS BIOTECHNOLOGIES GMBH, priority 2008, dated 2016).

The nature of data set [1]: HPLC-assay for stability of peptides in lyophilised formulation on storage for 3 months (Example 4). It is filed as physicochemical. The following applies: for stability of peptides in formulation, 1 M: 1 month; for stability of peptides in formulation, 2 M: 2 months; for stability of peptides in formulation, 3 M: 3 months. The procedure: (§1) Identity, purity and peptide content are determined by analytical RP-HPLC chromatography. Detection wavelength was 220 nm.

Data set [2] can be described thus: HPLC-assay for in-use stability after reconstitution with 4.2% sodium hydrogen carbonate solution (Example 3, peptides SEQ ID NO 11-23). It counts as physicochemical. The procedure:
For clinical trials the above described formulation is dissolved in 700 μl sodium hydrogen carbonate (4.2%). To dissolve the lyophilisate, the vial and the diluent shall be shaken vigorously for 1 minute, check whether solution is clear, otherwise continue shaking for another minute until the solution is clear. Administration of 500 μL of the solution has to occur within 1 h after reconstitution. Dissolved lyophilisate may be stored aseptically at room temperature for up to 1 hour following reconstitution.
as §1

Consider “AMTQLLAGV (listed as Homo sapiens) [TNC-001, Tenascin C peptide]”, for which the “stability of peptides in formulation, 1 M” value (“stability of peptides … 1 M” for short) in data set [1] (+5° C. +/- 3° C.) is 99.02 % of Initial; in data set [1] (+25° C. +/- 2° C.), 97.86 % of Initial; in data set [1] (-20° C. +/- 5° C.), 99.01 % of Initial. The entries for the “stability of peptides in formulation, 2 M” value (from here on “stability of peptides … 2 M”) in data set [1] (+5° C. +/- 3° C.), in data set [1] (+25° C. +/- 2° C.) and in data set [1] (-20° C. +/- 5° C.) were 98.10 % of Initial, 96.80 % of Initial and 97.61 % of Initial, respectively. For the same sequence, the “stability of peptides in formulation, 3 M” value (from here on “stability of peptides … 3 M”) is 98.72 % of Initial in data set [1] (+5° C. +/- 3° C.), 97.21 % of Initial in data set [1] (+25° C. +/- 2° C.) and 98.57 % of Initial in data set [1] (-20° C. +/- 5° C.). Also, the “stability of peptides in formulation, INITIAL” value (from here on “stability of peptides … INITIAL”) in data set [1] (+5° C. +/- 3° C.), in data set [1] (+25° C. +/- 2° C.) and in data set [1] (-20° C. +/- 5° C.) was 100.0% each time. In addition, the “in-use stability, Peptide [%]” value in data set [2] (+Mannitol/Lutrol, 2h) came out at 100.5%; in data set [2] (+Mannitol/Lutrol, 4h) it was 100.6%; in data set [2] (+Mannitol/Lutrol, 6h) it was 100.2%; in data set [2] (+Mannitol/Lutrol, Initial), 100.0%; in data set [2] (no excipients, 2h), 100.0%; in data set [2] (no excipients, 4h) it was 100.4%. Moreover, the “in-use stability, Peptide [%]” value in data set [2] (no excipients, 6h) turned out to be 95.7%; in data set [2] (no excipients, Initial) it was 100.0%.

On to “GLWHHQTEV (listed as Homo sapiens) [NRCAM-001, Neuronal cell adhesion molecule peptide]”, for which the figures for the “stability of peptides … 1 M” value in data set [1] (+5° C. +/- 3° C.), in data set [1] (+25° C. +/- 2° C.) and in data set [1] (-20° C. +/- 5° C.) were 99.13 % of Initial, 97.90 % of Initial and 99.23 % of Initial, respectively. Besides, the figures for the “stability of peptides … 2 M” value in data set [1] (+5° C. +/- 3° C.), in data set [1] (+25° C. +/- 2° C.) and in data set [1] (-20° C. +/- 5° C.) were 98.17 % of Initial, 96.73 % of Initial and 97.86 % of Initial, respectively. Besides, the results for the “stability of peptides … 3 M” value in data set [1] (+5° C. +/- 3° C.), in data set [1] (+25° C. +/- 2° C.) and in data set [1] (-20° C. +/- 5° C.) were 98.79 % of Initial, 97.59 % of Initial and 98.91 % of Initial, respectively. Moreover, the “stability of peptides … INITIAL” value in data set [1] (+5° C. +/- 3° C.), in data set [1] (+25° C. +/- 2° C.) and in data set [1] (-20° C. +/- 5° C.) was 100.0% throughout. The “in-use stability, Peptide [%]” value is on record as 99.9% in data set [2] (+Mannitol/Lutrol, 2h); 100.0% in data set [2] (+Mannitol/Lutrol, 4h); 99.5% in data set [2] (+Mannitol/Lutrol, 6h); 100.0% in data set [2] (+Mannitol/Lutrol, Initial); 99.8% in data set [2] (no excipients, 2h); 100.2% in data set [2] (no excipients, 4h). Moreover, the “in-use stability, Peptide [%]” value in data set [2] (no excipients, 6h) turned out to be 95.6%; in data set [2] (no excipients, Initial) it was 100.0%.

“KIQEILTQV (listed as Homo sapiens) [IGF2BP3-001]”: the “stability of peptides … 1 M” value in data set [1] (+5° C. +/- 3° C.) is recorded as 99.00 % of Initial; in data set [1] (+25° C. +/- 2° C.), 98.01 % of Initial; in data set [1] (-20° C. +/- 5° C.), 99.10 % of Initial. Also, the “stability of peptides … 2 M” value in data set [1] (+5° C. +/- 3° C.) was 97.92 % of Initial; in data set [1] (+25° C. +/- 2° C.), 96.77 % of Initial; in data set [1] (-20° C. +/- 5° C.), 97.54 % of Initial. Also, the results for the “stability of peptides … 3 M” value in data set [1] (+5° C. +/- 3° C.), in data set [1] (+25° C. +/- 2° C.) and in data set [1] (-20° C. +/- 5° C.) were 98.57 % of Initial, 97.34 % of Initial and 98.42 % of Initial, respectively. Also, the “stability of peptides … INITIAL” value in data set [1] (+5° C. +/- 3° C.), in data set [1] (+25° C. +/- 2° C.) and in data set [1] (-20° C. +/- 5° C.) was 100.0% in each case. Also, the “in-use stability, Peptide [%]” value turned out to be 100.4% in data set [2] (+Mannitol/Lutrol, 2h); 100.6% in data set [2] (+Mannitol/Lutrol, 4h); 100.7% in data set [2] (+Mannitol/Lutrol, 6h); 100.0% in data set [2] (+Mannitol/Lutrol, Initial); 100.0% in data set [2] (no excipients, 2h); 101.2% in data set [2] (no excipients, 4h). The “in-use stability, Peptide [%]” value in data set [2] (no excipients, 6h) turned out to be 96.0%; in data set [2] (no excipients, Initial), 100.0%.

With “KVFAGIPTV (listed as Homo sapiens) [PTP-005, Protein tyrosine phosphatase, receptor-type, Z polypeptide 1 peptide]”, the “stability of peptides … 1 M” value in data set [1] (+5° C. +/- 3° C.) is reported as 98.93 % of Initial; in data set [1] (+25° C. +/- 2° C.), 98.16 % of Initial; in data set [1] (-20° C. +/- 5° C.), 98.99 % of Initial. Further, the “stability of peptides … 2 M” value in data set [1] (+5° C. +/- 3° C.) is 97.79 % of Initial; in data set [1] (+25° C. +/- 2° C.) it was 97.10 % of Initial; in data set [1] (-20° C. +/- 5° C.) it was 97.41 % of Initial. The “stability of peptides … 3 M” value in data set [1] (+5° C. +/- 3° C.) was 98.67 % of Initial; in data set [1] (+25° C. +/- 2° C.) it was 98.30 % of Initial; in data set [1] (-20° C. +/- 5° C.) it was 98.34 % of Initial. The “stability of peptides … INITIAL” value in data set [1] (+5° C. +/- 3° C.), in data set [1] (+25° C. +/- 2° C.) and in data set [1] (-20° C. +/- 5° C.) was 100.0% in each case. Besides, the “in-use stability, Peptide [%]” value came out at 100.1% in data set [2] (+Mannitol/Lutrol, 2h); 100.3% in data set [2] (+Mannitol/Lutrol, 4h); 99.8% in data set [2] (+Mannitol/Lutrol, 6h); 100.0% in data set [2] (+Mannitol/Lutrol, Initial); 99.9% in data set [2] (no excipients, 2h); 100.4% in data set [2] (no excipients, 4h). In addition, the “in-use stability, Peptide [%]” value in data set [2] (no excipients, 6h) is 95.8%; in data set [2] (no excipients, Initial), 100.0%.

For the sequence “LTFGDVVAV (listed as Homo sapiens) [FABP7-001]”, the “stability of peptides … 1 M” value is 99.08 % of Initial in data set [1] (+5° C. +/- 3° C.), 98.43 % of Initial in data set [1] (+25° C. +/- 2° C.) and 99.09 % of Initial in data set [1] (-20° C. +/- 5° C.). Also, the “stability of peptides … 2 M” value is 98.15 % of Initial in data set [1] (+5° C. +/- 3° C.), 97.71 % of Initial in data set [1] (+25° C. +/- 2° C.) and 97.60 % of Initial in data set [1] (-20° C. +/- 5° C.). The “stability of peptides … 3 M” value in data set [1] (+5° C. +/- 3° C.) is recorded as 98.66 % of Initial; in data set [1] (+25° C. +/- 2° C.) it was 98.67 % of Initial; in data set [1] (-20° C. +/- 5° C.) it was 98.39 % of Initial. The “stability of peptides … INITIAL” value in data set [1] (+5° C. +/- 3° C.), in data set [1] (+25° C. +/- 2° C.) and in data set [1] (-20° C. +/- 5° C.) was 100.0% in each case. Further, the “in-use stability, Peptide [%]” value in data set [2] (+Mannitol/Lutrol, 2h) is listed as 100.9%; in data set [2] (+Mannitol/Lutrol, 4h) it was 100.7%; in data set [2] (+Mannitol/Lutrol, 6h) it was 100.6%; in data set [2] (+Mannitol/Lutrol, Initial) it was 100.0%; in data set [2] (no excipients, 2h) it was 100.5%; in data set [2] (no excipients, 4h), 100.9%. Besides, the “in-use stability, Peptide [%]” value turned out to be 96.3% in data set [2] (no excipients, 6h) and 100.0% in data set [2] (no excipients, Initial).
